From patent US20250136677A1 (ZOETIS SERVICES, published 2025)
Residue numbers refer to the chain shown, from its start.

Columns and labels:
[1] = target: T1, wildtype feline IL-31 protein (Feline_IL31_wildtype) (feline); assay: SPR (Biacore), IL-31 on chip, 1:1 fit
T1 construct: Full length feline IL-31 with C-terminal His tag, secreted from ExpiCHO cells; also called fIL-31
T1 chain: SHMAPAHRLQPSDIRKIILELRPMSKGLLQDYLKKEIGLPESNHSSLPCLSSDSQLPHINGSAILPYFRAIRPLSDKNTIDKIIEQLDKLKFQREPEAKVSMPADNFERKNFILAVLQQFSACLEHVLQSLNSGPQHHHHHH
How it was run: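 IL-31 was amine-coupled (NHS/EDC) to the chip at 5 μg/mL and quenched with ethanolamine, and candidate mAbs were flowed over it as analytes. Binding curves were fitted to a 1:1 model.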

[2] = target: T1, wildtype feline IL-31 protein …; assay: indirect ELISA, IL-31 protein coated
Description: (§1) For the indirect ELISA method, antibody binding to wildtype and feline IL-31 15H05 mutant proteins was assessed. All nine canine monoclonal antibodies (ZIL1, ZIL8, ZIL8, ZIL11, ZIL69, ZIL94, ZIL154, ZIL159, and ZIL171) were capable of binding to wildtype feline IL-31 and binding was impacted by mutations in the mAb 15H05 epitope region confirming the correct binding phenotype determined during the initial screening used to identify them. In comparison, the 11E12 antibody bound to the wild-type feline IL-31 and its binding was not impacted by the mutations in the 15H05 epitope region as evidenced by the data in FIG. 4. To confirm binding, biacore analysis was performed using canine, feline, equine, human, feline 15H05 mutant, and feline 11E12 mutant IL-31 proteins as surfaces and a single test concentration of antibody. Similar to ELISA observations, all antibodies tested bound to wildtype feline IL-31. In agreement with the data described above in this section, mouse antibodies 11E12 and 15H05 both bound to canine and feline IL-31 surfaces. Three additional antibodies where shown to have this dual binding property, ZIL69 (partial canine binding), ZIL94, and ZIL159. From this group of nine fully canine antibodies, only ZIL1 and ZIL9 cross-reacted with equine IL-31. Of note, antibody 15H05 was the only one of all assayed herein that bound to canine, feline, and equine IL-31 indicating some level of epitope conservation across the three species. In contrast, none of the antibodies described herein bound to human IL-31. Additional biacore surfaces were used to verify ELISA observations showing differential binding of antibodies to wildtype feline IL-31 and two proteins with mutations in the 15H05 (15H05 mutant) or 11E12 (11E12 mutant) epitopes. […] In agreement with the ELISA results, all fully canine antibodies were impacted by the 15H05 mutation with the exception of ZIL94, ZIL154, and ZIL171 (partially affected). Differing results can be attributed to differences in the two assay methodologies.

[3] = target: T2, mutant feline IL-31 15H05 protein (Feline_IL31_15H05_mutant) (feline); assay: indirect ELISA, IL-31 protein coated
T2 construct: also called feline 15H05 mutant; 15H05 IL-31 mutant
T2 chain: T1 chain with P103A, D105A
Description: as §1

[4] = target: T3, equine IL-31 protein (Equine_IL31) (equine); assay: SPR (Biacore), IL-31 surface, single antibody concentration
T3 construct: Recombinant equine IL-31
T3 chain: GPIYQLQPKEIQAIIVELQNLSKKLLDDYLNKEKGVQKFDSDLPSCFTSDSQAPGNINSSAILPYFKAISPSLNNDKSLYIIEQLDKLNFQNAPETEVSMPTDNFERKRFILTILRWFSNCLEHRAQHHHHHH
Description: (§2) For the indirect ELISA method, antibody binding to wildtype and feline IL-31 15H05 mutant proteins was assessed. All nine canine monoclonal antibodies (ZIL1, ZIL8, ZIL8, ZIL11, ZIL69, ZIL94, ZIL154, ZIL159, and ZIL171) were capable of binding to wildtype feline IL-31 and binding was impacted by mutations in the mAb 15H05 epitope region confirming the correct binding phenotype determined during the initial screening used to identify them. In comparison, the 11E12 antibody bound to the wild-type feline IL-31 and its binding was not impacted by the mutations in the 15H05 epitope region as evidenced by the data in FIG. 4. To confirm binding, biacore analysis was performed using canine, feline, equine, human, feline 15H05 mutant, and feline 11E12 mutant IL-31 proteins as surfaces and a single test concentration of antibody. Similar to ELISA observations, all antibodies tested bound to wildtype feline IL-31. In agreement with the data described above in this section, mouse antibodies 11E12 and 15H05 both bound to canine and feline IL-31 surfaces. Three additional antibodies where shown to have this dual binding property, ZIL69 (partial canine binding), ZIL94, and ZIL159. From this group of nine fully canine antibodies, only ZIL1 and ZIL9 cross-reacted with equine IL-31. Of note, antibody 15H05 was the only one of all assayed herein that bound to canine, feline, and equine IL-31 indicating some level of epitope conservation across the three species. In contrast, none of the antibodies described herein bound to human IL-31. Additional biacore surfaces were used to verify ELISA observations showing differential binding of antibodies to wildtype feline IL-31 and two proteins with mutations in the 15H05 (15H05 mutant) or 11E12 (11E12 mutant) epitopes.

[5] = target: T4, human IL-31 (human, UniProt Q6EBC2 24-164); assay: as above
T4 sequence: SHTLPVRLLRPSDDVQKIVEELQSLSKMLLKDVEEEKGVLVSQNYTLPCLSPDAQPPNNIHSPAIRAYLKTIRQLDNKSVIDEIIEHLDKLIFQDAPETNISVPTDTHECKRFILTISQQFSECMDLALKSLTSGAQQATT
Description: as §2

[6] = target: T5, canine IL-31 protein (Canine_IL31) (canine); assay: SPR (Biacore), IL-31 on chip, 1:1 fit
T5 chain: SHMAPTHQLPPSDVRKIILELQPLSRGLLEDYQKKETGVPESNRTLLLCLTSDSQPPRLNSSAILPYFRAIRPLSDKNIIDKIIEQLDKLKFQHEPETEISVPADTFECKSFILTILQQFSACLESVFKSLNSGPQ

[7] = target: T1, wildtype feline IL-31 protein …; assay: cell-based or functional assay
[8] = target: T6, wildtype feline IL-31 protein (Feline_IL31_wildtype) (feline)
T6 sequence: T1 chain

[9] = target: T6, wildtype feline IL-31 protein (Feline_IL31_wildtype) (feline); assay: Biacore, feline IL-31 chip, mAb 100 nM, share of points within parent mean +/-3 SD
[10] = target: T1, wildtype feline IL-31 protein …; assay: cell-based or functional assay
[11] = target: T1, wildtype feline IL-31 protein …; assay: cell-based or functional assay
[12] = target: T1, wildtype feline IL-31 protein …; assay: SPR (Biacore), feline IL-31 (SEQ ID NO 157)
Description: The affinity with which candidate mAbs bind canine and feline IL-31 was determined using surface plasmon resonance (SPR) on a Biacore system (Biocore Life Sciences (GE Healthcare), Uppsala, Sweden). To avoid affinity differences associated with differential surface preparation that can occur when immobilizing antibodies to surfaces; a strategy was employed where IL-31 was directly conjugated to the surface. Immobilization was obtained by amine coupling 5 μg/mL IL-31 using N-hydroxysuccinimide (NHS)/1-Ethyl-3-(3-dimethylaminopropyl) carbodiimide (EDC) chemistry. Chips were quenched with ethanolamine and the affinity with which all candidate mAbs bound to the immobilized IL-31 was evaluated. All curves were fit to a 1:1 model. […] Results for affinity measurements are described herein.
Cellular potency was assessed using feline IL-31 to stimulate pSTAT3 signalling in FCFW4 cells. IC₅₀ vlaues were calculated for each antibody as described previously in this application. […] It is worth noting that both antibodies are considered potent with IC₅₀s in the range of those antibodies previously described herein from the 15H05 lineage (FIG. 3).

[13] = target: T5, canine IL-31 protein (Canine_IL31)
[14] = target: T5, canine IL-31 protein (Canine_IL31); assay: cell-based or functional assay

B1: mouse anti IL-31 antibody 11E12 (antibody, V domains shown)
VH: QVQLQQSGAELVKPGASVKLSCKASGYTFKYYDINWVRQRPEQGLEWIGWIFPGDGGTKYNETFKGKATLTTDKSSSTAYMQLSRLTSEDSAVYFCARGGTSVIRDAMDYWGQGTSVTVSS
VL: DIVLTQSPASLAVSLGQRATISCRASESVDNYGISFMHWYQQKPGQPPKLLIYRASNLESGIPARFSGSGSRTDFTLTINPVETDDVATYYCQQSNKDPLTFGAGTKLELK
notes: Mouse monoclonal comparison antibody; also called MU-11E12; mouse 11E12
- Kd [1]: 0.738 nM
- koff [1]: 0.000123 s⁻¹
- kon [1]: 167000 M⁻¹ s⁻¹
- ELISA OD [2]: 1.15 OD
- ELISA OD [3]: 1.33 OD
- binding result [4]: no binding
- binding result [5]: no binding
- Kd [6]: 0.763 pM
- koff [6]: 4.8e-07 s⁻¹
- kon [6]: 629000 M⁻¹ s⁻¹
- IC50, inhibition of feline IL-31-induced STAT3 phosphorylation, canine DH82 cells [7]: 2.47 µg/mL
- IC50, inhibition of feline IL-31-induced STAT3 phosphorylation, feline FCWF4 cells [7]: 2.01 µg/mL

B2: A14 (antibody, V domains shown)
VH: QVLLVQSGAEVRTPGASVKIFCKASGYSFTSYTIHWLRQAPAQGLEWMGNINPTSGYTENNQRFKDRLTLTADTSTNTAYMELSSLRSADTAMYYCARWGFKYDGEWSFDVWGAGTTVTVSS
VL: EIQMTQSPSSLSASPGDRVTITCRASQGISIWLSWYQQKPGNIPKVLIAKASNLHIGVPSRFSGSGSGTDFTLTISSLEPEDAATYYCLQSQTYPLTFGGGTKLEIK
- % Inhibition Relative to Parent (pSTAT, FCWF-4 cells) [8]: -5.4%
- Binding Similarity score [9]: 8.4

B3: A22 (antibody, V domains shown)
VH: B2 VH
VL: B2 VL with A49N, S91A
- % Inhibition Relative to Parent (pSTAT, FCWF-4 cells) [8]: -4.3%
- Binding Similarity score [9]: 8.34

B4: ZTS-5864 (antibody, V domains shown)
VH: DVQLVESGGDLVKPGGSLRLTCVASGFTFSDYAMSWVRQAPGKGLQWVAGIDSVGSGTSYADSVKGRFTISRDNAKNTLYLQMNSLKTEDTATYYCASGFPGSFEHWGQGALVTVSS
VL: QSVLTQPSSVSGTLGQRITISCTGSSSNIGSGYVGWYQQVPGMGPKTVIYYNSDRPSGVPDRFSGSKSGSSGTLTITGLQAEDEADYYCSVYDRTFNAVFGGGTHLTVLG
notes: see recheck
- IC50, inhibition of feline IL-31 induced pSTAT3 in feline FCWF4 cells [10]: 3.73 µg/ml
- IC50, feline IL-31 stimulated pSTAT3 signalling in FCFW4 cells, relative to ZTS-5865 [11]: ~3 fold
- Kd [12]: 0.571 nM
- kon [12]: 108000 M⁻¹ s⁻¹

B5: ZTS-5865 (antibody, V domains shown)
VH: B4 VH with S35N, N84S, S85G, A111T
VL: B4 VL
notes: see recheck
- IC50, inhibition of feline IL-31 induced pSTAT3 in feline FCWF4 cells [10]: 9.08 µg/ml
- Kd [12]: 2.12 nM
- kon [12]: 76200 M⁻¹ s⁻¹

B6: 15H05 mouse:canine chimera (antibody)
heavy: QVQLQQSAAELARPGASVKMSCKTSGYTFTSYTIHWIKQRPGQGLEWIGNINPTSGYTENNQRFKDKTTLTVDRSSNTAYLQLHSLTSEDSAVYFCARWGFKYDGEWSFDVWGAGTTVTVSSASTTAPSVFPLAPSCGSTSGSTVALACLVSGYFPEPVTVSWNSGSLTSGVHTFPSVLQSSGLYSLSSMVTVPSSRWPSETFTCNVAHPASKTKVDKPVPKRENGRVPRPPDCPKCPAPEMLGGPSVFIFPPKPKDTLLIARTPEVTCVVVDLDPEDPEVQISWFVDGKQMQTAKTQPREEQFNGTYRVVSVLPIGHQDWLKGKQFTCKVNNKALPSPIERTISKARGQAHQPSVYVLPPSREELSKNTVSLTCLIKDFFPPDIDVEWQSNGQQEPESKYRTTPPQLDEDGSYFLYSKLSVDKSRWQRGDTFICAVMHEALHNHYTQESLSHSPGK
light: DIQMNQSPSSLSASLGDTITVTCRASQGISIWLSWYQQKPGNIPKVLINKASNLHIGVPPRFSGSGSGTHFTLTITSLQPEDIATYYCLQSQTYPLTFGGGTKLEINRNDAQPAVYLFQPSPDQLHTGSASVVCLLNSFYPKDINVKWKVDGVIQDTGIQESVTEQDKDSTYSLSSTLTMSSTEYLSHELYSCEITHKSLPSTLIKSFQRSEC
- IC50, inhibition of canine IL-31-induced STAT3 phosphorylation, canine DH82 cells [13]: 12.7 µg/mL
- IC50, feline IL-31 signaling on the canine DH82 cell line (pSTAT3) [11]: 0.71 µg/ml
- IC50, inhibition of feline IL-31-induced STAT3 phosphorylation, feline FCWF4 cells [7]: 3.11 µg/mL
- IC50 against canine IL-31 (pSTAT3; cell type not stated for this pair of values) [14]: 12.5 µg/ml

B7: ZIL94 (recombinant fully canine antibody) (antibody, V domains shown)
VH: EVQLVDSGGDLVKPGGSLRLSCVASGFTFSTYFMSWVRQAPGRGLQWVALISSDGSGTYYADAVKGRFTISRDNAKNTLYLQMNSLRAEDTAMYYCAIFWRAFNDWGQGTLVTVSS
VL: QTVVIQEPSLSVSPGGTVTLTCGLNSGSVSTSNYPGWYQQTRGRTPRTIIYDTGSRPSGVPNRFSGSISGNKAALTITGAQPEDEADYYCSLYTDSDILVFGGGTHLTVLR
notes: also called CAN-ZIL94
- ELISA OD [2]: 1.67 OD
- ELISA OD [3]: 1.3 OD
- binding result [4]: no binding
